Results published in patent publication US20230322927A1 (Regeneron, published 2023).

Assays:
human EGFR on cells [1] = target: T1, human EGFR on cells (human, UniProt P00533 25-1210); assay: cell-based or functional assay
human CD28 on cells = human CD28 on cells (human, UniProt P10747 19-220); assay: cell-based or functional assay
human EGFR on cells [2] = target: T1, human EGFR on cells; assay: flow cytometry titration on A375 cells
Description: (§1) After incubation, the cells were washed twice with cold PBS containing 1% filtered FBS and a Fluorophore-conjugated anti-human secondary antibody was added to the cells and incubated for an additional 30 minutes. Live/dead dye was added to Human and Cynomolgus T cells incubations. Wells containing no antibody or secondary only were used as a control.
(§2) After incubation with EGFR expressing cells, cells were washed, re-suspended in 200 μL cold PBS containing 1% filtered FBS and analyzed by flow cytometry on a BD FACS Canto II.

human EGFR on cells [3] = target: T1, human EGFR on cells; assay: flow cytometry titration on PEO1 cells
Description: as §1, §2

human EGFR on cells [4] = target: T1, human EGFR on cells; assay: flow cytometry titration on 22RV1 cells
Description: as §1, §2

human EGFR on cells [5] = target: T1, human EGFR on cells; assay: flow cytometry titration on A375 cells (EGFR-expressing)
Description: (§3) Flow cytometric analysis was utilized to determine binding of anti-EGFR X anti-CD28 bispecific antibodies to several cancer cell lines (A375, 22RV1, PEO1, CAPAN2, SWi1990, H292), Human and Cynomolgus T cells and Jurkat cells followed by detection with a labeled anti-human secondary IgG antibody. […] After incubation, the cells were washed twice with cold PBS containing 1% filtered FBS and a Fluorophore-conjugated anti-human secondary antibody was added to the cells and incubated for an additional 30 minutes. Live/dead dye was added to Human and Cynomolgus T cells incubations. Wells containing no antibody or secondary only were used as a control.

human EGFR on cells [6] = target: T1, human EGFR on cells; assay: flow cytometry titration on H292 cells (EGFR-expressing)
Description: as §3

human EGFR on cells [7] = target: T1, human EGFR on cells; assay: flow cytometry titration on PEO1 cells (EGFR-expressing)
Description: as §3

human EGFR on cells [8] = target: T1, human EGFR on cells; assay: flow cytometry titration on CASKI cells; CASKI cells
human EGFR on cells [9] = target: T1, human EGFR on cells; assay: flow cytometry titration on 22RV1 cells (EGFR-expressing)
Description: as §3

human EGFR on cells [10] = target: T1, human EGFR on cells; assay: flow cytometry titration on CAPAN2 cells (EGFR-expressing)
Description: as §3

human EGFR on cells [11] = target: T1, human EGFR on cells; assay: flow cytometry titration on SW1990 cells (EGFR-expressing)
Description: as §3

[12] = target: T2, hEGFR(ECD).CPGG.MMH6 (REGN355) (human, UniProt P00533 25-647); assay: SPR (Biacore 4000) at 25 C; antibody captured on anti-human Fc, hEGFR.mmH injected
T2 construct: Soluble extracellular domain with a myc-myc-hexahistidine tag; also called hEGFR.mmH; hEGFR.mmh
Description: Association was monitored for 5 minutes, and the dissociation of hEGFR.mmH in HBS-EP running buffer was monitored for 10 minutes. All of the binding kinetics experiments were performed at 25° C. Kinetic association (kₐ) and dissociation (kd) rate constants were determined by fitting the real-time sensorgrams to a 1:1 binding model using Scrubber 2.0c curve fitting software.

hCD28.mFc (REGN2012) = target: T3, hCD28.mFc (REGN2012) (human, UniProt P10747 19-152, limits assumed); assay: SPR (Biacore T-200) at 25 C; hCD28.mFc captured on anti-mouse Fc, antibody injected
T3 construct: also called Human CD28-mFc; hCD28 with a C-terminal mouse Fc tag; not shown: C-terminal mouse Fc tag

B1: REGN6323 (bispecific antibody, human IgG4 S228P, kappa)
heavy 1: QVQLQESGPGLVKPSETLSLTCTVSDDSIISYYWSWIRQPPGKGLEWIGYIYYSGRTNYNPSLKSRVTISVDTSKNQVSLKLNSVIAADTAVYYCARVSEDSYYHYGMDVWGQGTTVTVSSASTKGPSVFPLAPCSRSTSESTAALGCLVKDYFPEPVTVSWNSGALTSGVHTFPAVLQSSGLYSLSSVVTVPSSSLGTKTYTCNVDHKPSNTKVDKRVESKYGPPCPPCPAPPVAGPSVFLFPPKPKDTLMISRTPEVTCVVVDVSQEDPEVQFNWYVDGVEVHNAKTKPREEQFNSTYRVVSVLTVLHQDWLNGKEYKCKVSNKGLPSSIEKTISKAKGQPREPQVYTLPPSQEEMTKNQVSLTCLVKGFYPSDIAVEWESNGQPENNYKTTPPVLDSDGSFFLYSRLTVDKSRWQEGNVFSCSVMHEALHNHYTQKSLSLSLGK
heavy 2: QVQLQESGPGLVKPSETLSLTCTVSGGSISSYYWSWIRQPPGKGLEWIGYIYYSGITHYNPSLKSRVTISVDTSKIQFSLKLSSVTAADTAVYYCARWGVRRDYYYYGMDVWGQGTTVTVSSASTKGPSVFPLAPCSRSTSESTAALGCLVKDYFPEPVTVSWNSGALTSGVHTFPAVLQSSGLYSLSSVVTVPSSSLGTKTYTCNVDHKPSNTKVDKRVESKYGPPCPPCPAPPVAGPSVFLFPPKPKDTLMISRTPEVTCVVVDVSQEDPEVQFNWYVDGVEVHNAKTKPREEQFNSTYRVVSVLTVLHQDWLNGKEYKCKVSNKGLPSSIEKTISKAKGQPREPQVYTLPPSQEEMTKNQVSLTCLVKGFYPSDIAVEWESNGQPENNYKTTPPVLDSDGSFFLYSRLTVDKSRWQEGNVFSCSVMHEALHNRFTQKSLSLSPGK
light: not shown
notes: EGFR arm from mAb13006P2, CD28 arm from mAb14226; also called bsAb6323; EGFRxCD28
Q: Which results are given for B1?
A: Inhibition [%] of BaF3/hEGFR proliferation in presence of 0.5 nM hEGF (human EGFR on cells [1]): 28.5%; Inhibition [%] of BaF3/hEGFR proliferation in presence of 0.5 nM hTGFβ (human EGFR on cells [1]): -7.3%; IL-2 Release MAX (pg/mL), human CD3+ T cells + NCI-H292 cells, with 20 nM IsoC-1 (human CD28 on cells): 13.2 pg/mL; IL-2 Release MAX (pg/mL), human CD3+ T cells + NCI-H292 cells, with 20 nM cemiplimab (human CD28 on cells): 36.7 pg/mL; Proliferation EC50 [M], human CD3+ T cells + NCI-H292 cells, with 20 nM IsoC-1 (human CD28 on cells): 2.29e-11 M; Proliferation EC50 [M], human CD3+ T cells + NCI-H292 cells, with 20 nM cemiplimab (human CD28 on cells): 3.13e-11 M; Proliferation MAX (CPM), human CD3+ T cells + NCI-H292 cells, with 20 nM IsoC-1 (human CD28 on cells): 1660 CPM; Proliferation MAX (CPM), human CD3+ T cells + NCI-H292 cells, with 20 nM cemiplimab (human CD28 on cells): 2340 CPM; EC50 (human EGFR on cells [2]): 0.874 nM; EC50 (human EGFR on cells [3]): 5.86 nM; EC50 (human EGFR on cells [4]): 11.9 nM; EC50 (human EGFR on cells [5]): 1.48 nM; EC50 (human EGFR on cells [6]): 0.674 nM; EC50 (human EGFR on cells [7]): 0.667 nM; EC50 (human EGFR on cells [8]): 2.35 nM; EC50 (human EGFR on cells [9]): 0.554 nM; EC50 (human EGFR on cells [10]): 1.29 nM; EC50 (human EGFR on cells [11]): 2.96 nM; Kd [12]: 3.75 nM; koff [12]: 0.000774 s⁻¹; kon [12]: 206000 M⁻¹ s⁻¹; t½ [12]: 14.9 min; Kd (hCD28.mFc (REGN2012)): 10 nM; koff (hCD28.mFc (REGN2012)): 0.00265 s⁻¹; kon (hCD28.mFc (REGN2012)): 265000 M⁻¹ s⁻¹; t½ (hCD28.mFc (REGN2012)): 4.4 min
